Results from patent US12404345B2, “Humanized antibodies against iRHOM2” (SCIRHOM GMBH, priority 2021, dated 2025).
Positions count from the first letter of the chain named.

T1: human iRhom2 (Homo sapiens, UniProt Q6PJF5)
T1 construct: MEF-DKO-hiR2-FL-WT-T7 cells stably expressing human iRhom2 full length wild type; expressed in transfected cells; host or cells: immortalized iRhom1/2-/- double knockout mouse embryonic fibroblasts, pMSCV retroviral infection
T1 sequence (Q6PJF5 1-856): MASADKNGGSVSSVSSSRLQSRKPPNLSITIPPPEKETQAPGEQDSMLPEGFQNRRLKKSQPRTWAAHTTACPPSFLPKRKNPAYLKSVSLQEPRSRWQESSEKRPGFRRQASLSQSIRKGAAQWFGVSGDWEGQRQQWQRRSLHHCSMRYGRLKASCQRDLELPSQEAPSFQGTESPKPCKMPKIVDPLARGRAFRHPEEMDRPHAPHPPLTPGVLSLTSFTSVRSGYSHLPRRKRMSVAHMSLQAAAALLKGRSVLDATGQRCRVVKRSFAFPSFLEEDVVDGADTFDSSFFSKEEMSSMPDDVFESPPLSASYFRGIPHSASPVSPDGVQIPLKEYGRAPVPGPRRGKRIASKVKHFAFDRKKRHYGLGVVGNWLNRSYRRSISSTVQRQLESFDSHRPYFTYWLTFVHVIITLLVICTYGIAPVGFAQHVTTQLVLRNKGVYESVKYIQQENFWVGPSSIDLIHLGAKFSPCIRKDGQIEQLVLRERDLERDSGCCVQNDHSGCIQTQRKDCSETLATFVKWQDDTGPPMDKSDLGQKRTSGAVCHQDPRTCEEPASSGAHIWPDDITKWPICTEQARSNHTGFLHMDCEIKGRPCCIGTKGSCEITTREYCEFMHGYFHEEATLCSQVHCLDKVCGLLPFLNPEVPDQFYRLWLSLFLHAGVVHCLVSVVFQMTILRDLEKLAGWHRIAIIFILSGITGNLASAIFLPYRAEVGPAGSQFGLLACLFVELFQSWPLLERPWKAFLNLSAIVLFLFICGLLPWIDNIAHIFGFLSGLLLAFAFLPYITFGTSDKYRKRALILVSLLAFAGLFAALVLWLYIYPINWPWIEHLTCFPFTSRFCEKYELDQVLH

B1: 16-B-03: humanized antibody binding human iRhom2; HCVD SEQ ID NO 1, LCVD SEQ ID NO 5 (antibody, V domains shown)
VH: QVTLRESGPALVKPTQTLTLTCTFSGFSLSTFALGVGWIRQPPGKALEWLAHIWWDDDKYYNPALKSRLTISKDTSKNQVVLTITNMDPVDTATYYCARITTYYYGMDYWGQGTLVTVSS
VL: EIVMTQSPDFQSVTPKEKVTITCRASQSIGNHLHWYQQKPDASPKLLIKYASQSISGVPSRFSGSGSGTDFTLTINSLEAEDAATYFCQQSYQWPLTFGQGTKLEIK
modifications: antibody sequences
B2: 16-B-07: humanized antibody binding human iRhom2; HCVD SEQ ID NO 17, LCVD SEQ ID NO 21 (antibody, V domains shown)
VH: B1 VH with D57E
VL: B1 VL
modifications: antibody sequences
B3: 16-B-05: humanized antibody binding human iRhom2; HCVD SEQ ID NO 9, LCVD SEQ ID NO 13 (antibody, V domains shown)
VH: B1 VH with D57E
VL: B1 VL with Q93N
modifications: antibody sequences
B4: 23-B-04: humanized antibody binding human iRhom2; HCVD SEQ ID NO 25, LCVD SEQ ID NO 29 (antibody, V domains shown)
VH: QVTLRESGPALVKPTQTLTLTCTFSGFSLSTFGMGVGWIRQPPGKALEWLAHIWWDDEKYYNSALKSRLTISKDTSKNQVVLTITNMDPVDTATYYCARISNYGSNYWYFNVWGQGTLVTVSS
VL: AIQLTQSPSSLSASVGDRVTITCRASSSVSYMYWYQQKPGKAPKVLIYDTSNLASGVPSRFSGSGSGTDYTLTISSLQPEDFATYYCQQWNAYPLTFGQGTKLEIK
modifications: antibody sequences
B5: 42-B-04: humanized antibody binding human iRhom2; HCVD SEQ ID NO 41, LCVD SEQ ID NO 45 (antibody, V domains shown)
VH: B4 VH with M34R, S101Q, N111D
VL: B4 VL with S28R, V29I, Y33F
modifications: antibody sequences
B6: 42-B-02: humanized antibody binding human iRhom2; HCVD SEQ ID NO 33, LCVD SEQ ID NO 37 (antibody, V domains shown)
VH: B4 VH with M34R, S101Q, N111D
VL: B4 VL with S28R, V29I, Y33F, A92S
modifications: antibody sequences

Molecular target: T1, human iRhom2
Test: Affinity determination by indirect FACS scatchard analysis on L929-2041-hiR2-FL-WT-T7 cells
Format: binding
Settings: 22 two-fold dilutions starting at 160 μg/ml, on ice 1 hour
Protocol: In this study, affinity measurements of the humanized antibodies 16-B-03, 16-B-05, 16-B-07, 23-B-04, 42-B-02 and 42-B-04 of the invention were performed by indirect FACS scatchard analysis on […] cells, a murine cell line expressing human iRhom2.
The resulting L929 mouse iRhom2 knock-out cell line was afterwards infected with different human iRhom2 constructs to obtain cell line derivatives, stably expressing different human iRhom2 proteins, that allow for binding analyses to different iRhom2 variants in the same genetic background.
In brief, mRhbdf2.3 IVT gRNA ([…]) was synthesized at Thermo Fisher Scientific GeneArt GmbH, Regensburg, Germany. One day post seeding in 24 well plates, L929 parental cells were transfected according to GeneArt CRISPR Nuclease mRNA user guide (Thermo Fisher Scientific, USA) with the gRNA/GeneArt Platinium Cas9 Nucelase (Thermo Fisher Scientific, USA) mix using Lipofectamine CRISPRMAX Transfection Reagent (Thermo Fisher Scientific, USA). 3 days post transfection, cells were lysed and DNA was extracted for amplification of specific PCR products using the mRhbdf2.3 fwd ([…])/mRhbdf2.3 rev ([…]) 5primer pair (Thermo Fisher Scientific, USA). […] Cleavage assay PCR products were also analyzed on Invitrogen 2% E-Gel Size Select agarose gels. Two rounds of subsequent sub cloning of the identified polyclonal L929 population using limited dilution technique were performed, using the Cleavage Detection Kit for identification of positive sub clones. Thereby, the most promising positive sub clone identified in the first round, named 1029, was further sub cloned in the second round to obtain the final clone, named 2041. The monoclonal cell population derived from this sub clone is named L929-2041 and was used for subsequent infection (according to the procedure described in Example 3) with the human iRhom2 construct hiR2-FL-WT-T7 for the generation of the cell lines L929-2041-hiR2-FL-WT-T7.
In brief, L929-2041-hiR2-FL-T7 were harvested with 10 mM EDTA in PBS, washed and resuspended in FACS buffer (PBS, 3% FBS, 0.05% sodium azide), and seeded in Nunc U-bottom 96-well plates (Thermo Fisher Scientific, USA) at approximately 3×10^5 cells per well. In order to pellet cells and remove supernatants, the plates were centrifuged at 1,500 rpm and 4° C. for 3 minutes. For primary staining, cells were resuspended in 100 μl per well of either FACS buffer alone (controls) or serial two-fold dilutions (in total 22 concentrations) of the humanized antibodies 16-B-03, 16-B-05, 16-B-07, 23-B-04, 42-B-02 and 42-B-04 of the invention in FACS buffer starting at 160 μg/ml and incubated on ice for 1 hour. Afterwards, plates were centrifuged at 1,500 rpm and 4° C. for 3 minutes and washed twice with 200 μl per well of FACS buffer. For secondary staining, cells were spun down and resuspended in 100 μl per well of PE-conjugated goat anti-human IgG F(ab′)2 detection fragment (Dianova, Germany) diluted 1:100 in FACS buffer. Protected from light, the cell suspensions were incubated on ice for 1 hour. Plates were then centrifuged at 1,500 rpm and 4° C. for 3 minutes and washed three times with 200 μl per well of FACS buffer. Finally, cells were resuspended in 150 μl per well of FACS buffer and analyzed using a BD Accuri™ C6 Plus flow cytometer (Becton Dickinson, Germany). Applying Prism8 software (GraphPad Software, USA), the respective KD value for each of the antibodies of the invention were calculated.

Molecule	KD values for binding to L929-2041-hiR2-FL-T7 cells
B1	subnanomolar to low nanomolar range
B2	subnanomolar to low nanomolar range
B3	subnanomolar to low nanomolar range
B4	subnanomolar to low nanomolar range
B5	subnanomolar to low nanomolar range
B6	subnanomolar to low nanomolar range
